Experimental data as given in patent US20220306753A1 (JN BIOSCIENCES, published 2022).

Key:
[1] = biological target: T1, Human B7-2/CD86 Protein, Fc Tag (human, UniProt P42081 24-247); test: ELISA, plate coated with 1 µg/ml CD86 Fc tag protein, anti-human kappa-HRP detection
T1 construct: Bought protein coated on the ELISA plate; also called Cat. No. CD6-H5257, Acro Biosystems; not shown: Fc tag of the bought protein
T1 sequence (looked up): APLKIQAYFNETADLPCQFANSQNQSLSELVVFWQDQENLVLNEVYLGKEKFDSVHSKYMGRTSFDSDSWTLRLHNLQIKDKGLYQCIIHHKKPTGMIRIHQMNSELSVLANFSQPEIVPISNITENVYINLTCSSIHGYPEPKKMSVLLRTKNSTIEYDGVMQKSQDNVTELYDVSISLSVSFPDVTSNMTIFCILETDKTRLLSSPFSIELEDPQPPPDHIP
Procedure: (§1) Binding of HuABC2-CTLA4 and HuABC2-CTLA4YE to human CD122, CD80 and CD86 was analyzed by ELISA. Wells of an ELISA plate were coated with 1 μg/ml of either CD122 (Human IL-2R beta/CD122 Protein, Fc Tag; Cat. No. ILB-H5253, Acro Biosystems, Newark, Del.), CD80 (Human B7-1/CD80 Protein, Mouse IgG2a Tag; Cat. No. B71-H52A4, Acro Biosystems) or CD86 (Human B7-2/CD86 Protein, Fc Tag; Cat. No. CD6-H5257, Acro Biosystems) in PBS. After blocking with Blocking Buffer and washing the wells with Wash Buffer, transiently expressed HuABC2-CTLA4 and HuABC2-CTLA4YE at 0.5 μg/ml and serial 2-fold dilutions in ELISA Buffer were applied to the wells in duplicates. Purified HuABC2 at 0.5 μg/mland serial 2-fold dilutions was used as a control. After incubation for 1 hr at room temperature and washing with Wash Buffer, bound antibodies were detected using HRP-conjugated goat anti-human kappa chain polyclonal antibody. After incubation for 30 min and washing with Wash Buffer, color development was initiated by adding ABTS substrate and stopped with 2% oxalic acid. Absorbance was read at 405 nm.

[2] = biological target: T2, Human B7-1/CD80 Protein, Mouse IgG2a Tag (human, UniProt P33681 35-242); test: ELISA, plate coated with 1 µg/ml CD80 mouse IgG2a tag protein, anti-human kappa-HRP detection
T2 construct: Bought protein coated on the ELISA plate; also called Cat. No. B71-H52A4, Acro Biosystems; not shown: mouse IgG2a tag of the bought protein
T2 sequence (looked up): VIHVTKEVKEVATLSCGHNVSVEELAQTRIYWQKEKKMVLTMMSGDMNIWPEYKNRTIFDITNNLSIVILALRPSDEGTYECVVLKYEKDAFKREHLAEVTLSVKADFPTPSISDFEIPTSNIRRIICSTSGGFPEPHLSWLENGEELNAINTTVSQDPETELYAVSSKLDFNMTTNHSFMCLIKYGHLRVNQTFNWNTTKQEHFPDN
Procedure: as §1

[3] = biological target: T3, Human IL-2R beta/CD122 Protein, Fc Tag (human, UniProt P14784 27-239); test: ELISA, plate coated with 1 µg/ml CD122 Fc tag protein, binder from 0.5 µg/ml in 2-fold dilutions, anti-human kappa-HRP
T3 construct: Bought protein coated on the ELISA plate; also called Cat. No. ILB-H5253, Acro Biosystems; not shown: Fc tag of the bought protein
T3 sequence (looked up): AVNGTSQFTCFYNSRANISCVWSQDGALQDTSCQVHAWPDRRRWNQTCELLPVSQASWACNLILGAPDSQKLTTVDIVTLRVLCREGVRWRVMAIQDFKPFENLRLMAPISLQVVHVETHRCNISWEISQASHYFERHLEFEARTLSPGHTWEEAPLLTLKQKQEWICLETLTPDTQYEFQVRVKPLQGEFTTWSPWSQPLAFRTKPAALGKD
Procedure: as §1

binding result [3]: binds
B1: HuABC2 (antibody, human IgG1, kappa, V domains shown)
VH: EVQLVESGGGLVQPGGSLRLSCAASGFTFSDFYMEWVRQAPGKGLEWIAASRNKANDYTTEYSASVKGRFIVSRDDSKNSLYLQMNSLKTEDTAVYYCARSYYRYDGMDYWGQGTTVTVSS
VL: EIVLTQSPATLSLSPGERATLSCSAISSVSYMYWYQQKPGQAPRLLIYDTSNLVSGVPARFSGSGSGTDYTLTISSLEPEDFAVYYCQQWNTYPYTFGGGTKVEIKR
notes: Human IgG1/kappa, wild-type Fc, expressed from pHuABC2p in CHO-K1 and purified on protein A; also called humanized anti-CD122 IgG1/kappa monoclonal antibody
binding result [1]: no binding (tested: 0.5 µg/ml and serial 2-fold dilutions)
binding result [2]: no binding (tested: 0.5 µg/ml and serial 2-fold dilutions)
